From patent publication EP2373335B1 (Eli Lilly and Company, dated 2016)

Tests used:
human ferroportin 1 [1] = target: T1, human ferroportin 1 (human, UniProt Q9NP59 1-571); test: cell-based or functional assay
T1 sequence: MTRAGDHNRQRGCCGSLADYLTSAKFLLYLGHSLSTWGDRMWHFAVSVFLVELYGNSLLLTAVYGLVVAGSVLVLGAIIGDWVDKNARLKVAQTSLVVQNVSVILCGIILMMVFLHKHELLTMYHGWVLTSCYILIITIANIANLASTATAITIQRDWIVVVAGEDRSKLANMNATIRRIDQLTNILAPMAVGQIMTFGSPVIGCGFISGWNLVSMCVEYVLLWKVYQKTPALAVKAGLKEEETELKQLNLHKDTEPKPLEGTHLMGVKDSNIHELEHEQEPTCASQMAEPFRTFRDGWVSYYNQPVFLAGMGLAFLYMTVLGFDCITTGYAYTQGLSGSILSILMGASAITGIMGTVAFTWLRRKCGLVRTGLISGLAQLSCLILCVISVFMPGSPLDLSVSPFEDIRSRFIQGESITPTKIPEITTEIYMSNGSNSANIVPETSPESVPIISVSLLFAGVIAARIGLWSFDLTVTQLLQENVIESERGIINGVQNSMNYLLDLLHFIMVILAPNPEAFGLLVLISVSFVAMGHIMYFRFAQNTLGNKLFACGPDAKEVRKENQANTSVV

human ferroportin 1 [2] = target: T1, human ferroportin 1; test: inhibition of 30 nM biotinylated hepcidin binding to FPN/293 cells, ELISA read-out; antibody at 7.8 nM; mean
human ferroportin 1 [3] = target: T1, human ferroportin 1; test: inhibition of 30 nM biotinylated hepcidin binding to FPN/293 cells, ELISA read-out; antibody at 500 nM; mean
human ferroportin 1 [4] = target: T1, human ferroportin 1; test: inhibition of 30 nM biotinylated hepcidin binding to FPN/293 cells, ELISA read-out; antibody at 2000 nM; mean
FPN1-GFP [5] = target: T2, FPN1-GFP (human, UniProt Q9NP59 1-571, A GFP reporter is fused to the C terminus of FPN1. Its letters are not given, so it is left out.); test: cell-based or functional assay
T2 sequence: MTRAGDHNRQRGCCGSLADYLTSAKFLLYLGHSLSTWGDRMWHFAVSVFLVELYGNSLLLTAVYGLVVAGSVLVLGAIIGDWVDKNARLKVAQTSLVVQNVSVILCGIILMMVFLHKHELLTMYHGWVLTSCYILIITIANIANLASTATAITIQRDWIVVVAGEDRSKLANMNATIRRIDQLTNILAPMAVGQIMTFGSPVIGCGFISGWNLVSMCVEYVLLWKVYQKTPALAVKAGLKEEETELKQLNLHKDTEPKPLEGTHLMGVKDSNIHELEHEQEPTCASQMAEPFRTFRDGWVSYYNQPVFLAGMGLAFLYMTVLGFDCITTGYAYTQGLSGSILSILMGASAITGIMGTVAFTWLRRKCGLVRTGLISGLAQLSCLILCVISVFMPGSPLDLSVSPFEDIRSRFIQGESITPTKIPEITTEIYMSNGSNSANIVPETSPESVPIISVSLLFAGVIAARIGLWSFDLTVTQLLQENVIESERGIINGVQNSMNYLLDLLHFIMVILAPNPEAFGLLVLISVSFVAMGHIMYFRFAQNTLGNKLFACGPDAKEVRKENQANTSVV

human ferroportin 1 [6] = target: T1, human ferroportin 1; test: inhibition of 30 nM biotinylated hepcidin binding to FPN/293 cells, ELISA read-out; antibody at 125 nM; mean
human ferroportin 1 [7] = target: T1, human ferroportin 1; test: inhibition of 30 nM biotinylated hepcidin binding to FPN/293 cells, ELISA read-out; antibody at 31.25 nM; mean
FPN1-GFP [8] = target: T2, FPN1-GFP; test: cell-based or functional assay; remark: listed apart in the source
FPN1-GFP [9] = target: T2, FPN1-GFP; test: SPR (Biacore T100) at 37 °C; FPN1-GFP captured on rabbit anti-GFP antibody; KD of Fab 1G9 against KD of Fab 34A9

Row | Molecule | % Inhibition (human ferroportin 1 [2]) [%] | % Inhibition (human ferroportin 1 [3]) [%] | % Inhibition (human ferroportin 1 [4]) [%] | Absolute IC50 (FPN1-GFP [5]) [nM] | Relative IC50 (FPN1-GFP [5]) [nM] | Top % Inhibition (hepcidin-25-induced internalization and degradation of FPN1-GFP) (FPN1-GFP [5]) [%] | % Inhibition (human ferroportin 1 [6]) [%] | EC50 (nM); inhibition of hepcidin induced ferritin increase in Caco-2 cells (human ferroportin 1 [1]) [nM] | % Inhibition (human ferroportin 1 [7]) [%] | Percent (%) Inhibition of Mature Human Hepcidin-induced Internalization and Degradation In Vitro; Mab at 7.4 nM (FPN1-GFP [8]) [%] | Percent (%) Inhibition of Mature Human Hepcidin-induced Internalization and Degradation In Vitro; Mab at 22 nM (FPN1-GFP [8]) [%] | Percent (%) Inhibition of Mature Human Hepcidin-induced Internalization and Degradation In Vitro; Mab at 67 nM (FPN1-GFP [8]) [%] | Percent (%) Inhibition of Mature Human Hepcidin-induced Internalization and Degradation In Vitro; Mab at 200 nM (FPN1-GFP [8]) [%] | Percent (%) Inhibition of Mature Human Hepcidin-induced Internalization and Degradation In Vitro; Mab at 600 nM (FPN1-GFP [8]) [%] | also measured
1 | Mouse IgG1, a negative control (antibody) | – | – | – | – | – | – | – | – | – | – | – | – | – | – | % Inhibition; ferritin in Caco-2 cells with 100 nM hepcidin; 6.25 µg/mL mIgG1 (human ferroportin 1 [1]): 0%; % Inhibition; ferritin in Caco-2 cells with 100 nM hepcidin; 12.5 µg/mL mIgG1 (human ferroportin 1 [1]): 0%; % Inhibition; ferritin in Caco-2 cells with 100 nM hepcidin; 25 µg/mL mIgG1 (human ferroportin 1 [1]): 7.2%; % Inhibition; ferritin in Caco-2 cells with 100 nM hepcidin; 50 µg/mL mIgG1 (human ferroportin 1 [1]): 0%; % Inhibition; ferritin in Caco-2 cells with 100 nM hepcidin; 100 µg/mL mIgG1 (human ferroportin 1 [1]): 3.5%; % Inhibition; ferritin in Caco-2 cells with 100 nM hepcidin; 200 µg/mL mIgG1 (human ferroportin 1 [1]): 11.6%; Ferritin (ng)/ protein (µg); Caco-2 cells with 100 nM hepcidin; 6.25 µg/mL mIgG1 (human ferroportin 1 [1]): 10.4 ng/µg; Ferritin (ng)/ protein (µg); Caco-2 cells with 100 nM hepcidin; 12.5 µg/mL mIgG1 (human ferroportin 1 [1]): 10 ng/µg; Ferritin (ng)/ protein (µg); Caco-2 cells with 100 nM hepcidin; 25 µg/mL mIgG1 (human ferroportin 1 [1]): 9.6 ng/µg; Ferritin (ng)/ protein (µg); Caco-2 cells with 100 nM hepcidin; 50 µg/mL mIgG1 (human ferroportin 1 [1]): 10.1 ng/µg; Ferritin (ng)/ protein (µg); Caco-2 cells with 100 nM hepcidin; 100 µg/mL mIgG1 (human ferroportin 1 [1]): 9.78 ng/µg; Ferritin (ng)/ protein (µg); Caco-2 cells with 100 nM hepcidin; 200 µg/mL mIgG1 (human ferroportin 1 [1]): 9.4 ng/µg
2 | Mab 4A10-3 (antibody, human IgG4 S228P, kappa, F234A L235A, V domains shown) VH: QVQLVQSGAEVKKPGSSVKVSCKASGYAFTSFLIEWVRQAPGQGLEWMGTSNPRTGGRKYKEKFRGRVTITADKSTSTAYMELSSLRSEDTAVYYCAREFFDYWGQGTTVTVSS VL: DIQMTQSPSSLSASVGDRVTITCRASKSISKYTAWYQQKPGKAPKLLIYAGSKLHWGVPSRFSGSGSGTDFTLTISSLQPEDFATYYCQQHNEYPYTFGGGTKVEIKR | 5.4 | 84.9 | 95.3 | 5.7 | 4.7 | 85.9 | 59.3 | 37 | 13.4 | – | – | – | – | – | –
3 | Mab 3D8 (antibody, human IgG4 S228P, kappa, F234A L235A, V domains shown) VH: QVQLVQSGAEVKKPGSSVKVSCKASGYAFTSFLIEWVRQAPGQGLEWMGTSNPRTGGTKYKEKFRGRVTITADKSTSTAYMELSSLRSEDTAVYYCAREFFDYWGQGTTVTVSS VL: DIQMTQSPSSLSASVGDRVTITCRASKSISKYTAWYQQKPGKAPKLLIYAGSKLHSGVPSRFSGSGSGTDFTLTISSLQPEDFATYYCQQHNEYPYTFGGGTKVEIKR | – | – | – | 13.7 | 10.2 | 86.8 | – | 360 | – | 28.1 | 50.2 | 55.7 | 63.8 | 66.4 | –
4 | Mab Combi11 (antibody, human IgG4 S228P, kappa, F234A L235A, V domains shown) VH: QVQLVQSGAEVKKPGSSVKVSCKASGYAFTSFLIEWVRQAPGQGLEWMGTSNPRTGRTKYKSKFRGRVTITADKSTSTAYMELSSLRSEDTAVYYCAREFFDYWGQGTTVTVSS VL: DIQMTQSPSSLSASVGDRVTITCRASKSISKYTAWYQQKPGKAPKLLIYAGSKRHWGVPSRFSGSGSGTDFTLTISSLQPEDFATYYCQQHNEYPYTFGGGTKVEIKR | 18.7 | 81.6 | 79.9 | 3.8 | 3.7 | 92.6 | 88.4 | 28 | 32.1 | – | – | – | – | – | –
5 | Mab 34A9 (antibody, mouse IgG1, kappa, V domains shown) VH: QVQLKQSGAELVRPGTSVKVSCKASGYAFTNFLIEWLKQRPGQGLEWIGTINPETGGTKYNEKFRGKATLTADKSSSTAYMQLNSLTSDDSAVYFCVREFFDYWGQGTSLTVSS VL: ETTVTQSPSYLAASPGETITINCRASKSISKYLAWFQEKPGKTNKLLIYAGSTLHSGIPSRFSGSGSGTDFTLTISSLEPEDFAMYYCQQHNEYPYTFGGGTKLELKR | – | – | – | – | 58.9 | 55.2 | – | – | – | 4.8 | 14.1 | 23.6 | 30.8 | 39 | –
6 | Fab 1G9 (Fab, V domains shown, also called mouse 1G9; mouse Fab 1G9) VH: QVQLKQSGAELVRPGTSVKVSCKASGYAFTSFLIEWLKQRPGQGLEWIGTINPRTGGTKYNEKFRGKATLTADKSSSTAYMQLNSLTSDDSAVYFCVREFFDYWGQGTSLTVSS VL: ETTVTQSPSYLAASPGETITINCRASKSISKYLAWFQEKPGKTNKLLIYAGSKLHSGIPSRFSGSGSGTDFTLTISSLEPEDFAMYYCFQHNEYPYTFGGGTKLELK | – | – | – | – | – | – | – | – | – | – | – | – | – | – | fold improvement in binding affinity against Fab 34A9 (FPN1-GFP [9]): ~5 fold

Continued, in another order:

Row | % Inhibition (human ferroportin 1 [2]) [%] | % Inhibition (human ferroportin 1 [3]) [%] | % Inhibition (human ferroportin 1 [4]) [%] | Absolute IC50 (FPN1-GFP [5]) [nM] | Relative IC50 (FPN1-GFP [5]) [nM] | Top % Inhibition (hepcidin-25-induced internalization and degradation of FPN1-GFP) (FPN1-GFP [5]) [%] | % Inhibition (human ferroportin 1 [6]) [%] | EC50 (nM); inhibition of hepcidin induced ferritin increase in Caco-2 cells (human ferroportin 1 [1]) [nM] | % Inhibition (human ferroportin 1 [7]) [%] | Percent (%) Inhibition of Mature Human Hepcidin-induced Internalization and Degradation In Vitro; Mab at 7.4 nM (FPN1-GFP [8]) [%] | Percent (%) Inhibition of Mature Human Hepcidin-induced Internalization and Degradation In Vitro; Mab at 22 nM (FPN1-GFP [8]) [%] | Percent (%) Inhibition of Mature Human Hepcidin-induced Internalization and Degradation In Vitro; Mab at 67 nM (FPN1-GFP [8]) [%] | Percent (%) Inhibition of Mature Human Hepcidin-induced Internalization and Degradation In Vitro; Mab at 200 nM (FPN1-GFP [8]) [%] | Percent (%) Inhibition of Mature Human Hepcidin-induced Internalization and Degradation In Vitro; Mab at 600 nM (FPN1-GFP [8]) [%] | Molecule | also measured
7 | -0.1 | 99.8 | 85.1 | 6.2 | 4.8 | 81.6 | 76.5 | 193 | 27.5 | – | – | – | – | – | Mab L2.2-4 (antibody, human IgG4 S228P, kappa, F234A L235A, V domains shown) VH: QVQLVQSGAEVKKPGSSVKVSCKASGYAFTSFLIEWVRQAPGQGLEWMGTSNPRTGGRKYKEKFRGRVTITADKSTSTAYMELSSLRSEDTAVYYCAREFFDYWGQGTTVTVSS VL: DIQMTQSPSSLSASVGDRVTITCRASKSISKYTAWYQQKPGKAPKLLIYAGSKLRSGVPSRFSGSGSGTDFTLTISSLQPEDFATYYCQQHNEYPYTFGGGTKVEIKR | –
8 | – | – | – | 18.8 | 9.2 | 69 | – | – | – | 24.3 | 49.9 | 61.8 | 62.4 | 67.9 | Mab 1G9 (antibody, mouse IgG1, kappa, V domains shown) VH: QVQLKQSGAELVRPGTSVKVSCKASGYAFTSFLIEWLKQRPGQGLEWIGTINPRTGGTKYNEKFRGKATLTADKSSSTAYMQLNSLTSDDSAVYFCVREFFDYWGQGTSLTVSS VL: ETTVTQSPSYLAASPGETITINCRASKSISKYLAWFQEKPGKTNKLLIYAGSKLHSGIPSRFSGSGSGTDFTLTISSLEPEDFAMYYCFQHNEYPYTFGGGTKLELKR | –
